Experimental data taken from patent publication US20210130804.

How the values were obtained:
Test in all cases: cleavage_in_vitro
[1] = system: T1, OMNI-40 TXTL (Aliiarcobacter faecis); conditions: PAM NYGRV
T1 sequence: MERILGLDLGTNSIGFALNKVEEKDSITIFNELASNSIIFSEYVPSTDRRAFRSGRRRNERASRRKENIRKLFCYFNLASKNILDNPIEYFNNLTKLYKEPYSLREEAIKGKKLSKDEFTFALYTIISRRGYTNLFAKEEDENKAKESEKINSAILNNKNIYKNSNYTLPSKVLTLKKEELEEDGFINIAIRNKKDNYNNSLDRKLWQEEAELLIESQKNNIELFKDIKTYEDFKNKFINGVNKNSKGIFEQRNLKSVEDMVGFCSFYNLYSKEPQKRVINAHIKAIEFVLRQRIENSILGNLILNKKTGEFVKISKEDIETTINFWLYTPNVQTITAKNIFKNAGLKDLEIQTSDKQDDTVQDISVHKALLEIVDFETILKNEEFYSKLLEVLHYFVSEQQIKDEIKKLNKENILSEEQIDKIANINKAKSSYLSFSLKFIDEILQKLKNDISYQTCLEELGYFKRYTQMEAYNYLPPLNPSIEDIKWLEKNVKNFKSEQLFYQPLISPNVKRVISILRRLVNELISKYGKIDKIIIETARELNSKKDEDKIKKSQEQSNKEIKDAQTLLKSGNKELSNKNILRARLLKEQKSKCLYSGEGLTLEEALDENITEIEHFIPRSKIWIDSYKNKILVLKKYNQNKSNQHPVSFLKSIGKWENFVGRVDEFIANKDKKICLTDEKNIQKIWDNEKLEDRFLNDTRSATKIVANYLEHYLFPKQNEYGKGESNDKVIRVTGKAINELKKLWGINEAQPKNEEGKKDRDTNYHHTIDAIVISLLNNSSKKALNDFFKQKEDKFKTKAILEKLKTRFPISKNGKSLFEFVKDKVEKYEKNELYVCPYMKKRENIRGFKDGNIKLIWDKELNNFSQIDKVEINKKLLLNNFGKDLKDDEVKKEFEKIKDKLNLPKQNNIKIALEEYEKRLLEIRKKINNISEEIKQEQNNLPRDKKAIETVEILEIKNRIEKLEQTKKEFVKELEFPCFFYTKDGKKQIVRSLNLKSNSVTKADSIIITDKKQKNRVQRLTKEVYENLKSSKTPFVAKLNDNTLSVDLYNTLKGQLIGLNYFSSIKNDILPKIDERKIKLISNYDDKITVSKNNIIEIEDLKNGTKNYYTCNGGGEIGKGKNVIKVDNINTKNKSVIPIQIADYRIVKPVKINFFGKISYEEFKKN

[2] = system: T2, OMNI-50 TXTL (Ezakiella peruensis strain M6.X2); conditions: PAM NGG
T2 sequence: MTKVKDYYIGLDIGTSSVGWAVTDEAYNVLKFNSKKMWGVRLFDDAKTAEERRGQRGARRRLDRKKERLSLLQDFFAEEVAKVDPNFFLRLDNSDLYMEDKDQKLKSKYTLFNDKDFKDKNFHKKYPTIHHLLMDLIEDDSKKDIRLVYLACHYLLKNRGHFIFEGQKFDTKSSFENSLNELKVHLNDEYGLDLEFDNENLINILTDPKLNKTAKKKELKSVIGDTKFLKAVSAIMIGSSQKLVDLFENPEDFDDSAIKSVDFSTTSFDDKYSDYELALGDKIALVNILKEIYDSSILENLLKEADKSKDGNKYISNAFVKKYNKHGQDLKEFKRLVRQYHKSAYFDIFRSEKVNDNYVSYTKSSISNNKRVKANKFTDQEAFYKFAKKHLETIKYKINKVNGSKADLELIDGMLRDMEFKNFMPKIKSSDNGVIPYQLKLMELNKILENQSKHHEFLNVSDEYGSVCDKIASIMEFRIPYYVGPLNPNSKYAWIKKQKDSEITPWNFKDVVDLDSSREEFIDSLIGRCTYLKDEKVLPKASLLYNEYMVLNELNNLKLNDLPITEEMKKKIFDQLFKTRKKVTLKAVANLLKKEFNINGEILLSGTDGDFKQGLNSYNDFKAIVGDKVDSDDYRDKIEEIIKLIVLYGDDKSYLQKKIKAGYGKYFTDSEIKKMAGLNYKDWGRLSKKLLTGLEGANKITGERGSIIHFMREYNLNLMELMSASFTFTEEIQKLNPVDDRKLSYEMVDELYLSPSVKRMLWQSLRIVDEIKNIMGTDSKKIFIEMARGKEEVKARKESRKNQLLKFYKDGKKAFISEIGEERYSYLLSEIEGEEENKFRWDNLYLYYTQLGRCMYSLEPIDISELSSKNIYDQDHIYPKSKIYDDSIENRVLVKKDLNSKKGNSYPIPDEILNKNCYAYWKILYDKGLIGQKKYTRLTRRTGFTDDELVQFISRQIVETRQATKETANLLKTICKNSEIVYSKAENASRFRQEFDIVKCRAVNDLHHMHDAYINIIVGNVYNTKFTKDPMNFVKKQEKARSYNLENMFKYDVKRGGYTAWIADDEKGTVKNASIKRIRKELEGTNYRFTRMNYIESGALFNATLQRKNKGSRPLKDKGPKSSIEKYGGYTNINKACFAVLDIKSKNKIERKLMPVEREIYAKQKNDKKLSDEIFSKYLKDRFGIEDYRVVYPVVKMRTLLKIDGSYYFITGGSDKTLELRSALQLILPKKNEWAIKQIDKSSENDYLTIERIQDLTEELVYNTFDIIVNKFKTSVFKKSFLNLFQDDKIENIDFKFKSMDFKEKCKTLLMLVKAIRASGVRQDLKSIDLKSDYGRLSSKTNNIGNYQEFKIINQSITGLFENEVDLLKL

[3] = system: T3, OMNI-53 TXTL (Clostridium sp. AF02-29); conditions: PAM NRHR general, NAWA specific
T3 sequence: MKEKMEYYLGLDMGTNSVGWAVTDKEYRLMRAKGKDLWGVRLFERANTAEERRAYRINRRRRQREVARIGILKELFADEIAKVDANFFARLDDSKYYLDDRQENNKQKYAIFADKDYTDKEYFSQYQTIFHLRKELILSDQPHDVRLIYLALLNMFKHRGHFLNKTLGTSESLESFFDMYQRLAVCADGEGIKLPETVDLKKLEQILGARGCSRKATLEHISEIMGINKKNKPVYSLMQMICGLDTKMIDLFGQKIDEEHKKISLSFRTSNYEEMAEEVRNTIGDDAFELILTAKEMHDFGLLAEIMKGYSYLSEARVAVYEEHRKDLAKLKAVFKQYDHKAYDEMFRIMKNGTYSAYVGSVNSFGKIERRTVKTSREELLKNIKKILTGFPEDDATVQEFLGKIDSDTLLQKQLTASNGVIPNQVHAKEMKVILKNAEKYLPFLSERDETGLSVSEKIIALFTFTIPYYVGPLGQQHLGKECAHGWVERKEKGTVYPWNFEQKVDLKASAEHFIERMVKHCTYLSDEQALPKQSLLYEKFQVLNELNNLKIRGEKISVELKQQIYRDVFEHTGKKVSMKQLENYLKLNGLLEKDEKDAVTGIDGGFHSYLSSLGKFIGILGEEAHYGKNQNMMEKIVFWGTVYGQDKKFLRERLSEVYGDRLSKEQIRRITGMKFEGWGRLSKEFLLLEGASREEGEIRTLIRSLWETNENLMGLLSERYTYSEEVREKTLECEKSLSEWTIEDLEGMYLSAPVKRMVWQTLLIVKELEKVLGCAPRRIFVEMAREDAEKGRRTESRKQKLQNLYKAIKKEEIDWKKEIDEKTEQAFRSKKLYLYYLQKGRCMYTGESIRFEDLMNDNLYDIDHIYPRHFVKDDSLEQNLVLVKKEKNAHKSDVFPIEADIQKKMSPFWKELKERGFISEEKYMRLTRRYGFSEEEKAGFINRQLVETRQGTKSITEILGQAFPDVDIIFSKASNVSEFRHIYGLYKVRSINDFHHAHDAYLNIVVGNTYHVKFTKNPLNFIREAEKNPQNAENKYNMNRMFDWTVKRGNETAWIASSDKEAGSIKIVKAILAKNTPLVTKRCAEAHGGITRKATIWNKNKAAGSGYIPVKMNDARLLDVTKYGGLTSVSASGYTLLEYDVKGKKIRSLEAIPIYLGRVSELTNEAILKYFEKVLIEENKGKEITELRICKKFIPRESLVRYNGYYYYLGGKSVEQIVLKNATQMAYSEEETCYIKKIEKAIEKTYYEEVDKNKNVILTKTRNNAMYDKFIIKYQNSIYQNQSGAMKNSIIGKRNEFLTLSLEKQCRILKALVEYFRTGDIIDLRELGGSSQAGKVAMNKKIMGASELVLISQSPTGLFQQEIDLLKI

[4] = system: T4, OMNI-39 TXTL (Butyrivibrio sp. AC2005); conditions: PAM NNGHAD general, NNGYAA specific
T4 sequence: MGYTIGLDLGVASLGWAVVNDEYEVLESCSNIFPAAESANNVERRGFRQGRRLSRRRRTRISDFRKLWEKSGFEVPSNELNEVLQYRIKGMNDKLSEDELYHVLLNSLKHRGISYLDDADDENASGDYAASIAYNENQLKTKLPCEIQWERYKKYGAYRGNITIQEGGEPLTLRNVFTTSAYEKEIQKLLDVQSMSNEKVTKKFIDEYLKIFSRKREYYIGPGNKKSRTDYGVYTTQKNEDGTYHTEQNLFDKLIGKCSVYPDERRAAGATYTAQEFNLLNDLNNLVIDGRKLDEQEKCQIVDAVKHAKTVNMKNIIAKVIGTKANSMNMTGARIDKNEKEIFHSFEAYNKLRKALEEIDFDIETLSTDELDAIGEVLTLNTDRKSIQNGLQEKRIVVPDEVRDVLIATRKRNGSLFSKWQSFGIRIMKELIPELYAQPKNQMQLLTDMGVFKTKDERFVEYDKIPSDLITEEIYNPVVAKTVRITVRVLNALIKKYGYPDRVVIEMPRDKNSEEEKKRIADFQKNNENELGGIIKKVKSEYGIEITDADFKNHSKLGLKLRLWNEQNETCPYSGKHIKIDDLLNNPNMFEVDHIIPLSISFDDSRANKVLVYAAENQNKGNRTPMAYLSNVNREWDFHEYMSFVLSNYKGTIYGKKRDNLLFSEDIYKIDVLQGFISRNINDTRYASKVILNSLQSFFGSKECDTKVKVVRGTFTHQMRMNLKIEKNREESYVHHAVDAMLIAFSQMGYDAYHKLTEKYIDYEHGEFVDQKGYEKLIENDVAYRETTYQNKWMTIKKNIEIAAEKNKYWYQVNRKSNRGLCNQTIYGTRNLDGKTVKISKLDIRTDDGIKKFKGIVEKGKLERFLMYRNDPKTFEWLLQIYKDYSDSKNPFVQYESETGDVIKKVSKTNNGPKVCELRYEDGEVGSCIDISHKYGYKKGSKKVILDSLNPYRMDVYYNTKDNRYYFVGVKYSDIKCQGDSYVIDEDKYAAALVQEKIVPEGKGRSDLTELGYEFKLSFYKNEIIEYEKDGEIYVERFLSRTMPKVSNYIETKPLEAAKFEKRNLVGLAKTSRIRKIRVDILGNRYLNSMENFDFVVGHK

GGAAGAGCAGAGCCUUGGUCUCGUUUUGUUACCAUAUGAUUGAAAAUUUAUAUGACCUAACAAAACAAGGGUUUAUCCCGGACUCGGCUCUUCGGAGCCUUUUU / GGAAGAGCAGAGCCTTGGTCTCNNNNNNNN / NNNNNNNNGAGACCAAGGCTCTGCTCTTCC [T2 sgRNA V2 OMNI-40 ; T2 protospacer 8N PAM library]
activity (1-depletion score) [1]: 0.97

GGAAGAGCAGAGCCUUGGUCUCGUUUGAGAGUUAUGUAAGAAAUUACAUGACGAGUUCAAAUAAAAAUUUAUUCAAACCGCCUAUUUAUAGGCCGCAGAUGUUCUGCAUUAUGCUUGCUAUUGCAAGCUUUUUU / GGAAGAGCAGAGCCTTGGTCTCNNNNNNNN / NNNNNNNNGAGACCAAGGCTCTGCTCTTCC [T2 sgRNA V2 OMNI-50 ; T2 protospacer 8N PAM library]
activity (1-depletion score) [2]: 0.98

GGAAGAGCAGAGCCUUGGUCUCGUUUGAGAACCAUGUAAGAAAUUACAUGGUGAGUGCAAAUAAGGAUUAUCCGAAAUUGUAUGCCCGCAUUGUGCGGCAAUAAAAAGGCUCGAAAGAGUCUUUUU / GGAAGAGCAGAGCCTTGGTCTCNNNNNNNN / NNNNNNNNGAGACCAAGGCTCTGCTCTTCC [T2 sgRNA V2 OMNI-53 ; T2 protospacer 8N PAM library]
activity (1-depletion score) [3]: 0.97

GGAAGAGCAGAGCCUUGGUCUCGUUUUAGUACCUAGAGAAAGAAAUUUCUUUAGACCUACUAAAAUAAGGCUUUAUGCCGAGAUUAAAGGAUGCCGACGGGCAUCCUUUUUU / GGAAGAGCAGAGCCTTGGTCTCNNNNNNNN / NNNNNNNNGAGACCAAGGCTCTGCTCTTCC [T2 sgRNA V2 OMNI-39 ; T2 protospacer 8N PAM library]
activity (1-depletion score) [4]: 0.95
